Laboratory results from US20210138031A1 (TRUSTEES OF TUFTS COLLEGE, published 2021).
Values belong to the molecule of their own block, whether it stands above or below them.

Columns and labels:
C9 = C9 (UniProt P02748 22-559); experiment: cell-based or functional assay
C3b = C3b (human, UniProt P01024 749-1663; P01024 23-667); experiment: cell-based or functional assay
C3b, sequence (P01024 749-1663 limits assumed, chain 1 of 2): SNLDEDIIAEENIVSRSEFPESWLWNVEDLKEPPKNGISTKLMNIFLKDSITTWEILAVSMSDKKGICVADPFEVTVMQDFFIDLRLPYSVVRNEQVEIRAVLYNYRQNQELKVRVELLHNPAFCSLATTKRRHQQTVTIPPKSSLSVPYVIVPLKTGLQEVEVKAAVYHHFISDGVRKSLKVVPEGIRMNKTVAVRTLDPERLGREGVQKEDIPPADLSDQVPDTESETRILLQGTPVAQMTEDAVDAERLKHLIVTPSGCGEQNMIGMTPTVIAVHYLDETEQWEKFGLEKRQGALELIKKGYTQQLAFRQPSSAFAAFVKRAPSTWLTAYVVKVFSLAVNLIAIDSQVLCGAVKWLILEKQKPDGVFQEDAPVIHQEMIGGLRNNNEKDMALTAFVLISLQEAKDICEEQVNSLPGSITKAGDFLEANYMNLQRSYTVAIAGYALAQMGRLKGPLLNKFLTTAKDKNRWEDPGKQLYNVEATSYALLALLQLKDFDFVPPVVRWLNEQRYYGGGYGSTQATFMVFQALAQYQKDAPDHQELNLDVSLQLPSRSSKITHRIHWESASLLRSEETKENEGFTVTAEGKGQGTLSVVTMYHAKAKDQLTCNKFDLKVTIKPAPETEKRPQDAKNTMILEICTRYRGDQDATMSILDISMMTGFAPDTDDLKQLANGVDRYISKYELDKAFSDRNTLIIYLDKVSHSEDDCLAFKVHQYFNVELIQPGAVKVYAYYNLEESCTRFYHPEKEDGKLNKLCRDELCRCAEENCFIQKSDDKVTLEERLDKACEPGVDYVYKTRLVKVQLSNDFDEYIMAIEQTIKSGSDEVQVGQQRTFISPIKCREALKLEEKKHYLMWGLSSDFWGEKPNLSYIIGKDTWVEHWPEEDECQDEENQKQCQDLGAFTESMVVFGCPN
C3b, sequence (P01024 23-667 limits assumed, chain 2 of 2): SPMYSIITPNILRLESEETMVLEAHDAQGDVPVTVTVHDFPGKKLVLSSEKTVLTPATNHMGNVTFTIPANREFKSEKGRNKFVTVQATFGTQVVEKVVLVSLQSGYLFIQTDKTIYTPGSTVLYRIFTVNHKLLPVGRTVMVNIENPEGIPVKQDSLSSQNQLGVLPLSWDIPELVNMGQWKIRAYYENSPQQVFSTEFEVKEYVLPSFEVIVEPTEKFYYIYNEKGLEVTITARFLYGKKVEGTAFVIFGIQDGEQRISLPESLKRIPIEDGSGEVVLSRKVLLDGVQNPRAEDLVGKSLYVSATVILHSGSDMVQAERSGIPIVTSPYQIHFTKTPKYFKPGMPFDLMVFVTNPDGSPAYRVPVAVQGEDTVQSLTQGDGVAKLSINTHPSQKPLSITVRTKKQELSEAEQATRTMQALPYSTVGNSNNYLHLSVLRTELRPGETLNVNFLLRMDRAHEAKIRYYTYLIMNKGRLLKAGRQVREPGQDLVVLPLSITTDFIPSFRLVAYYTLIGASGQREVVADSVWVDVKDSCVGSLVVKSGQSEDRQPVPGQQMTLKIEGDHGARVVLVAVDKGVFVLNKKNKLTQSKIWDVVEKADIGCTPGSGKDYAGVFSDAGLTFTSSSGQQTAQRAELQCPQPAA

C9, sequence (P02748 22-559 limits assumed): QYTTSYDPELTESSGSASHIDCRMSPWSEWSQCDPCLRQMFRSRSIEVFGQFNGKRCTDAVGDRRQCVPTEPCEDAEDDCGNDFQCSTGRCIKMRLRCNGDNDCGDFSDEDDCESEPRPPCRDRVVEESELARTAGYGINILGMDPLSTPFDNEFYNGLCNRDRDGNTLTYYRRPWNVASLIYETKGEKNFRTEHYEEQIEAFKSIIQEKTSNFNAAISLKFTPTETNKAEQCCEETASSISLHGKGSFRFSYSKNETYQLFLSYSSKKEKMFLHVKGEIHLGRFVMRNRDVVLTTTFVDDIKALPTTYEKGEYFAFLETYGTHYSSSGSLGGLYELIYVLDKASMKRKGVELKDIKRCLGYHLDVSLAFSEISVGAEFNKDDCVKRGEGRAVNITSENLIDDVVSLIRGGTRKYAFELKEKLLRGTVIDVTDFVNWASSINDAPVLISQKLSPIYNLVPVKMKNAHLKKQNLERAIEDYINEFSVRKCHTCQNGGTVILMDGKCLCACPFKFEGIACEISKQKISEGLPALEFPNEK

B1: Dual Terminator of Active Complement (DTAC) (other)
chain: GGDCGLPPDVPNAQPALEGRTSFPEDTVITYKCEESFVKIPGEKDSVICLKGSQWSDIEEFCNRSCEVPTRLNSASLKQPYITQNYFPVGTVVEYECRPGYRREPSLSPKLTCLQNLKWSTAVEFCKKKSCPNPGEIRNGQIDVPGGILFGATISFSCNTGYKLFGSTSSFCLISGSSVQWSDPLPECREIYCPAPPQIDNGIIQGERDHYGYRQSVTYACNKGFTMIGEHSIYCTVNNDEGEWSGPPPECRGKSLTSKVPPTVQKPTTVNVPTTEVSPTSQKTTTKTTTPNAQATRSTPVSRTTKHFHETTPNKGSGTTSGTTGGGGGLQCYNCPNPTADCKTAVNCSSDFDACLITKAGLQVYNKCWKFEHCNFNDVTTRLRENELTYYCCKKDLCNFNEQLE
modifications: glycosylated (about 76 kDa band observed)
- reduction of release of hemoglobin from sheep erythrocytes carrying C5b-8 after addition of C9, relative to media from pGFP-transfected cells (C9): 34.8%

B3: Soluble Active Complement Terminator (SACT) (other)
chain: GCEEPPTFEAMELIGKPKPYYEIGERVDYKCKKGYFYIPPLATHTICDRNHTWLPVSDDACYRETCPYIRDPLNGQAVPANGTYEFGYQMHFICNEGYYLIGEEILYCELKGSVAIWSGKPPICEKVLCTPPPKIKNGKHTFSEVEVFEYLDAVTYSCDPAPGPDPFSLIGESTIYCGDNSVWSRAAPECKVVKCRFPVVENGKQISGFGKKFYYKATVMFECDKGFYLDGSDTIVCDSNSTWDPPVPKCLKVGGGGGGDCGLPPDVPNAQPALEGRTSFPEDTVITYKCEESFVKIPGEKDSVICLKGSQWSDIEEFCNRSCEVPTRLNSASLKQPYITQNYFPVGTVVEYECRPGYRREPSLSPKLTCLQNLKWSTAVEFCKKKSCPNPGEIRNGQIDVPGGILFGATISFSCNTGYKLFGSTSSFCLISGSSVQWSDPLPECREIYCPAPPQIDNGIIQGERDHYGYRQSVTYACNKGFTMIGEHSIYCTVNNDEGEWSGPPPECRGKSLTSKVPPTVQKPTTVNVPTTEVSPTSQKTTTKTTTPNAQATRSTPVSRTTKHFHETTPNKGSGTTSGTTGGGGGLQCYNCPNPTADCKTAVNCSSDFDACLITKAGLQVYNKCWKFEHCNFNDVTTRLRENELTYYCCKKDLCNFNEQLE
modifications: N- and O-linked glycosylation (about 110 kDa band observed)
- reduction of release of hemoglobin from sheep erythrocytes carrying C5b-8 after addition of C9, relative to media from pGFP-transfected cells (C9): 29.9%

Other lines, results leading:

- reduction in lysis of sheep erythrocytes carrying C5b-8 after addition of C9, compared to GFP media containing C9 (C9): 21%
Molecule: sCD59 (soluble CD59, positive control) (from UniProt P13987 26-102)

- reduction in C3b α′ chain signal intensity in the presence of Factor I, relative to media from pGFP transfected cells (quantitative western blot) (C3b): 34.3%
B2: soluble terminator of activated complement (STAC) (other)
chain: LQCYNCPNPTADCKTAVNCSSDFDACLITKAGLQVYNKCWKFEHCNFNDVTTRLRENELTYYCCKKDLCNFNEQLEGGGGGCEEPPTFEAMELIGKPKPYYEIGERVDYKCKKGYFYIPPLATHTICDRNHTWLPVSDDACYRETCPYIRDPLNGQAVPANGTYEFGYQMHFICNEGYYLIGEEILYCELKGSVAIWSGKPPICEKVLCTPPPKIKNGKHTFSEVEVFEYLDAVTYSCDPAPGPDPFSLIGESTIYCGDNSVWSRAAPECKVVKCRFPVVENGKQISGFGKKFYYKATVMFECDKGFYLDGSDTIVCDSNSTWDPPVPKCLKVGGGGGGDCGLPPDVPNAQPALEGRTSFPEDTVITYKCEESFVKIPGEKDSVICLKGSQWSDIEEFCNRSCEVPTRLNSASLKQPYITQNYFPVGTVVEYECRPGYRREPSLSPKLTCLQNLKWSTAVEFCKKKSCPNPGEIRNGQIDVPGGILFGATISFSCNTGYKLFGSTSSFCLISGSSVQWSDPLPECREIYCPAPPQIDNGIIQGERDHYGYRQSVTYACNKGFTMIGEHSIYCTVNNDEGEWSGPPPECRGKSLTSKVPPTVQKPTTVNVPTTEVSPTSQKTTTKTTTPNAQATRSTPVSRTTKHFHETTPNKGSGTTSGTT
